Experimental findings from patent US12692303 (QYUNS THERAPEUTICS, dated 2026) are described below.

Experiment [1] concerns the target T1, IL-23 mutant L140P (human, UniProt Q9NPF7 20-189; P29460 23-328).
T1 construct: 293F cell supernatant
T1 chain 1: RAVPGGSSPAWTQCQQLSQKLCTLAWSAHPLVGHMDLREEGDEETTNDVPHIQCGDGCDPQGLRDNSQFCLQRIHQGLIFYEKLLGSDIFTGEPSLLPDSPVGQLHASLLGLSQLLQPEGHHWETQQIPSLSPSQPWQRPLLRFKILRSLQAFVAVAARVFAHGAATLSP
T1 chain 2: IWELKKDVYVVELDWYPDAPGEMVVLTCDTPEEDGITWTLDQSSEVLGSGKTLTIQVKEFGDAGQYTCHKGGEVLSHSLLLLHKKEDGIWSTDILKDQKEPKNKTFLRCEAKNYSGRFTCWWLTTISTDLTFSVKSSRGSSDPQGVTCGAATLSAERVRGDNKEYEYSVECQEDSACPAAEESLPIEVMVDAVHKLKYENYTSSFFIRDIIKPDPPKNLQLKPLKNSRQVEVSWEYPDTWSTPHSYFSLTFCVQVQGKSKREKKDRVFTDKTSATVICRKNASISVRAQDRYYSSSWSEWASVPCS
The experiment can be described thus: binding ELISA, antibody coated at 1 µg/ml, IL-23 mutant supernatant titrated, anti-His detection. The procedure: (§1) Mutation primers were designed through PCR method. The p19 mutant plasmid was co-transfected with p40 plasmid into 293F cells to prepare a cell supernatant containing the IL-23 mutant.
(§2) After blocking, a series of cell supernatant dilutions of IL-23 mutant diluted to a concentration ranging from 0 to 0.5 μg/ml for incubation. Then, Biotin labeled anti-His antibody and SA-HRP were added respectively for incubation, finally the substrate was added for color development, and the termination solution was added to terminate the color reaction. After termination, the ELISA plate was placed in a microplate reader to read the absorption value at 450 nm (the absorption values at 650 nm was taken as reference), and the dose effect curve was plotted and the $EC50$ value was calculated.
Background: ELISA stands for enzyme-linked immunosorbent assay.

Experiment [2] has as its target T2, IL-23 mutant W137A (human, UniProt Q9NPF7 20-189; P29460 23-328).
T2 construct: p19 mutant plasmid co-transfected with p40 plasmid into 293F cells; used as cell supernatant
T2 chain 1: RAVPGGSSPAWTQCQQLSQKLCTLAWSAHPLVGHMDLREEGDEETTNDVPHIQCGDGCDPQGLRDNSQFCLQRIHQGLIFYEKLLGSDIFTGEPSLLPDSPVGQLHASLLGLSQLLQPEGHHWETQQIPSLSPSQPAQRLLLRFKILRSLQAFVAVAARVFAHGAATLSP
T2 chain 2: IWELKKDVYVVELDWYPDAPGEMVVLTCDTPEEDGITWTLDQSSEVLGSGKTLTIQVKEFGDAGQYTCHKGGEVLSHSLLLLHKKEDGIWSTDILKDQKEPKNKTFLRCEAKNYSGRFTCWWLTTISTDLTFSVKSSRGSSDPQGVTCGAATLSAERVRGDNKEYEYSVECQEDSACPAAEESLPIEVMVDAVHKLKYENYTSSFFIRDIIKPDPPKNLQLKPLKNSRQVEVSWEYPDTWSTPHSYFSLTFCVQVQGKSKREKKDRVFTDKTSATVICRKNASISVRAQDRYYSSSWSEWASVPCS
The experiment is described as above. The procedure: as §1, §2

For experiment [3], the target named is T3, IL-23 mutant F144S (human, UniProt Q9NPF7 20-189; P29460 23-328).
T3 construct: 293F cell supernatant
T3 chain 1: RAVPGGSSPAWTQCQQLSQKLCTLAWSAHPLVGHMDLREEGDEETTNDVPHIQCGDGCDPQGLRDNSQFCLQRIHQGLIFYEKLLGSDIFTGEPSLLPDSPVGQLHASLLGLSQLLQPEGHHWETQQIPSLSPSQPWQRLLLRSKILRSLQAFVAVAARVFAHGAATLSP
T3 chain 2: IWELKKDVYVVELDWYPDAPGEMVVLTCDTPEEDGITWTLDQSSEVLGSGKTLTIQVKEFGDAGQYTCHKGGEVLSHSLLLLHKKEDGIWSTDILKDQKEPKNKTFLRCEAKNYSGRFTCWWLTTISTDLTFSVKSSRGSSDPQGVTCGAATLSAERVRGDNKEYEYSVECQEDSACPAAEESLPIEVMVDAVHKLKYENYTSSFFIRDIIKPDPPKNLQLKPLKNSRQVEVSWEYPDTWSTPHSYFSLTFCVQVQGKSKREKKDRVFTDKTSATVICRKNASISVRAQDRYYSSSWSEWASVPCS
The experiment is described as above. The procedure:
as §1, §2

Experiment [4] addresses T4, IL-23 mutant W137D (human, UniProt Q9NPF7 20-189; P29460 23-328).
T4 construct: 293F cell supernatant
T4 chain 1: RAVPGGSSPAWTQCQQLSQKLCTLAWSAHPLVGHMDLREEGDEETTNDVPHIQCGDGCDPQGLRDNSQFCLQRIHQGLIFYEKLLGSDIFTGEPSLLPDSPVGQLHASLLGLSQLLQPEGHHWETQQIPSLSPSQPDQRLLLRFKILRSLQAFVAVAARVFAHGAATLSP
T4 chain 2: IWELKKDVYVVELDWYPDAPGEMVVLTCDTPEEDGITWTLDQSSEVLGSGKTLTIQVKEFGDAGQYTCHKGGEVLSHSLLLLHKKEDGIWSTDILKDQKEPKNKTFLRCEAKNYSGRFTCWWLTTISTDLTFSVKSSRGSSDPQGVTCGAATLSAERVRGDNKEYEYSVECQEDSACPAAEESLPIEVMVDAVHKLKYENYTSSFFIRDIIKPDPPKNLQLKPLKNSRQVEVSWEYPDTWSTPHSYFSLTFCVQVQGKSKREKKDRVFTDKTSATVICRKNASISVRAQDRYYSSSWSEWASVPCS
The experiment is described as above. The procedure:
as §1, §2

For experiment [5], the target named is T5, IL-23 mutant R143A (human, UniProt Q9NPF7 20-189; P29460 23-328).
T5 construct: 293F cell supernatant
T5 chain 1: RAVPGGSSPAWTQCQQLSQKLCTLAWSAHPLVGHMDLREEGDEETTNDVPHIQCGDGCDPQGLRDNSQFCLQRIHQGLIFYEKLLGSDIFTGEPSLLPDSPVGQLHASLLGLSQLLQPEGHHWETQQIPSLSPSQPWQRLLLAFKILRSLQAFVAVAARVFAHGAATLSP
T5 chain 2: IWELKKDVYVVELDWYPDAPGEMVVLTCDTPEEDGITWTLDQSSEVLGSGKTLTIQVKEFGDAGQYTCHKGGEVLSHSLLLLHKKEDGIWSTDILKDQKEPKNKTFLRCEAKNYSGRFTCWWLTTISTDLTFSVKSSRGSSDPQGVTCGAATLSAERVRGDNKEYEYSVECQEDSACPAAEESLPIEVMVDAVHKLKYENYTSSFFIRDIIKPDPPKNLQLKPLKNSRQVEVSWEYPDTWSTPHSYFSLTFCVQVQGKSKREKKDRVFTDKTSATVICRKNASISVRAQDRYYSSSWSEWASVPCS
Described as above. The procedure: as §1, §2

For experiment [6], the target named is T6, Human interleukin 23 (hIL-23) (human, UniProt Q9NPF7 20-189; P29460 23-328).
T6 sequence 1: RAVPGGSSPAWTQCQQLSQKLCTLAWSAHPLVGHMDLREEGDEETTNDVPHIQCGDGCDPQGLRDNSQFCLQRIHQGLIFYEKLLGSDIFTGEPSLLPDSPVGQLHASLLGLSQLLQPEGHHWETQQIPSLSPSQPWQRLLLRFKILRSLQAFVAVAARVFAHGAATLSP
T6 sequence 2: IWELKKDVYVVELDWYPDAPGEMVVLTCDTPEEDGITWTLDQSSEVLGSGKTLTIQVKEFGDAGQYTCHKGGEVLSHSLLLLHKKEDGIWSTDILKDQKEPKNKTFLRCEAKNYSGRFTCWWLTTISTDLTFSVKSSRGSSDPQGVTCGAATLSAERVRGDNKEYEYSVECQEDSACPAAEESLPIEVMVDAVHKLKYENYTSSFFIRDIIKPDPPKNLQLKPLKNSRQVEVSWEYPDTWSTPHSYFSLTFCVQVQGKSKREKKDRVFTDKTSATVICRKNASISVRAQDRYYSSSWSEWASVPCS
The experiment can be described thus: cell-based or functional assay.

For experiment [7], the target named is T1, IL-23 mutant L140P. Put plainly: binding ELISA, antibody coated at 1 µg/ml, IL-23 mutant supernatant titrated; N.D: the binding is weak, and the EC50 value is not accurate. The procedure: as §1, §2
Experiment [8] deals with T3, IL-23 mutant F144S. Described as above. The procedure:
as §1, §2

For experiment [9], the target named is T6, Human interleukin 23 (hIL-23). Put plainly: SPR, Biacore T200, antibody captured on Protein A chip, IL-23 in flow, 25 °C, 1:1 model. The procedure: Commercialized Protein A chip was used to immobilize an appropriate amount of antibody by capture method, the Rmax was about 50 RU and the capture flow rate was 10 μl/min. The antigen was diluted by gradient, and the flow rate of the instrument was switched to 30 μl/min. The diluted antigen flowed through the reference channel and the channel of immobilized antibody in sequence from low to high concentration, and flowed through the buffer as negative control. The chip was regenerated with glycine at pH 1.5 after each binding and dissociation. Fitting was performed with the 1:1 binding model in the Kinetics option using the build-in software in the instrument, and the association rate constant k_a, dissociation rate constant […] and equilibrium dissociation constant K_D of the antibody were calculated.
(In general: Surface plasmon resonance follows binding to a sensor surface in real time, without labels.)

For experiment [10], the target named is T7, IL-23-p40 (human, UniProt P29460 23-328).
T7 construct: also called p40 subunit of IL-23; IL-12/IL-23p40
T7 sequence: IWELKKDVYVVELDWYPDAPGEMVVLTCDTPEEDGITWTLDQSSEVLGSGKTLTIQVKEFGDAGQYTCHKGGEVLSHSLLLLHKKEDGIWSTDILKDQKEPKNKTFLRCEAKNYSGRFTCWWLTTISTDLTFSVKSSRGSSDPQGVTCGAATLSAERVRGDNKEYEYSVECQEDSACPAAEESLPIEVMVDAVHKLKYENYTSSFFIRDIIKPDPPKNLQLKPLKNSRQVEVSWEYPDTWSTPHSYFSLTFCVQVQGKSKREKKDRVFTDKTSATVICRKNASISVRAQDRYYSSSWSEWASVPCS
Put plainly: Binding ELISA: IL-23-p40 coated at 2 ug/ml, goat anti-human IgG secondary antibody, OD450 (reference 650 nm).
Experimental: IL-23-p40 was diluted to 2 μg/ml, added to the ELISA plate, and coated overnight at 4° C. After blocking, a series of antibody dilutions diluted to a concentration ranging from 0 to 5 μg/ml and Goat-anti-human IgG secondary antibody were added respectively for incubation, finally substrate was added for color development, and the termination solution was added to terminate the color reaction. After termination, the ELISA plate was placed in a microplate reader to read the absorption value at 450 nm (the absorption value at 650 nm was taken as reference), and the dose effect curve was plotted to analyze the binding specificity of the antibody.

The target of experiment [11] is T8, Natural IL-23 (human, UniProt Q9NPF7 20-189; P29460 23-328).
T8 construct: It was detected with an anti-His antibody, so it carries a His tag
T8 sequence 1: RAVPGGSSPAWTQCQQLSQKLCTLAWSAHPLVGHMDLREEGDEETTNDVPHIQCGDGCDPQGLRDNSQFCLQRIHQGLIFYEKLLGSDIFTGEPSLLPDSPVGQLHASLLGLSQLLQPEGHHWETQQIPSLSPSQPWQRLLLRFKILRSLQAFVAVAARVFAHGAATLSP
T8 sequence 2: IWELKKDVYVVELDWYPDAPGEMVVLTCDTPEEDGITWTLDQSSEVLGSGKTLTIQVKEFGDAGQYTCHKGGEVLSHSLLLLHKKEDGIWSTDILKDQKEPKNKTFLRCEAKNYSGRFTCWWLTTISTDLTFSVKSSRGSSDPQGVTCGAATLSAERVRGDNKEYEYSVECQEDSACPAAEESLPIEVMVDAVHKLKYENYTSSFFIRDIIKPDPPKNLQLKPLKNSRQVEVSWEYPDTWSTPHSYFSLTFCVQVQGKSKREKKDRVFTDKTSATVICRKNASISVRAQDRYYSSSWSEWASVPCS
The experiment can be described thus: binding ELISA, antibody coated at 1 µg/ml, IL-23 titrated, anti-His detection.

B1: Risankizumab (antibody, V domains shown)
VH: QVQLVQSGAEVKKPGSSVKVSCKASGYTFTDQTIHWMRQAPGQGLEWIGYIYPRDDSPKYNENFKGKVTITADKSTSTAYMELSSLRSEDTAVYYCAIPDRSGYAWFIYWGQGTLVTVSS
VL: DIQMTQSPSSLSASVGDRVTITCKASRDVAIAVAWYQQKPGKVPKLLIYWASTRHTGVPSRFSGSGSRTDFTLTISSLQPEDVADYFCHQYSSYPFTFGSGTKLEIKR
One may read the EC50 as the concentration that produces a half-maximal response. Turning to B1, the EC50 came out at 0.0544 µg/mL in [1]; 0.0023 µg/mL in experiment [2]; 0.0101 µg/mL in experiment [3]; 0.0052 µg/mL in experiment [4]; 0.307 µg/mL in experiment [5].

B2: QX004N (HZD90-32) (antibody, human IgG1, kappa, V domains shown)
VH: EVQLVESGGGLVQPGGSLRLSCAASGFSLSNHEMSWVRQAPGKGLEWIGIITTSDTTYYATWAKGRFTISRDNSKNTLYLQMNSLRAEDTAVYYCARVDIVLLSVTSRIWGQGTLVTVSS
VL: DVVMTQSPSSLSASVGDRVTITCQASQSVSTYLSWYQQKPGKAPKLLIYGASNLESGVPSRFSGSGSGTDFTLTISSLQPEDFATYYCQSGYVFAGLTFGGGTKVEIKR
notes: Expressed in ExpiCHO-S cells, purified on Protein A; also called humanized clone 90#; 90VH-Hu18/90VK-Hu9
One may read the Kd as the constant that tells how readily two partners part at equilibrium. High values mean lower affinity, low ones higher affinity. As a reminder, the koff is the first-order rate constant of dissociation. Read a low koff as a long-lived complex. In general, kon refers to the rate constant with which the complex forms. High values mean fast association, low ones slow association. As for B2, in experiment [6], the “IC50, inhibition of phosphorylation of STAT3 in HEK Blue IL-23 cells induced by IL-23” value turned out to be 0.00321 µg/mL. In addition, in [6], the “IC50, inhibition of release of IFN-γ from human NK cells induced by IL-23” value turned out to be 0.0104 µg/mL. The “IC50, inhibition of release of IL-17A from mouse spleen cells induced by IL-23” value in [6] came out at 0.0117 µg/mL. Besides, the binding result in experiment [7] is recorded as “binds”; in experiment [8], “binds”; in experiment [10], “no binding”. The EC50 in experiment [2] was 0.0501 µg/mL; in [4], 0.363 µg/mL; in [5] it was 0.0034 µg/mL; in experiment [11], 0.0017 µg/mL. Binding in experiment [9] was put at a Kd of 0.101 nM. This molecule also yielded a koff in experiment [9] of 3.5e-05 s⁻¹. The molecule further yielded a kon in experiment [9] of 366000 M⁻¹ s⁻¹.
